From the supplement of paper PMC10567573

B1: TMEM106C (parent)
chain: TVPEILVHNIVIFMRTSVKISYIG

Variants of: B1
Assay: protein stability index of a GFP-peptide fusion (GPS, HEK-293T) (PSI 1-6); higher = more stable
Details: c terminus: a fixed tail appended
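Also: lentivirally expressed fusions sorted by FACS into six bins by GFP to DsRed ratio, PSI derived from sequencing read proportions per bin multiplied by bin number.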

Point of comparison: TVPEILVHNIVIFMRTHVKISYIG, protein stability index 2.76. Against it:
- TVPEILVHNIVICMRTSVKISYIG — higher, 3.25
- TVPEILVHNIVIDMRTSVKISYIG — higher, 2.85
- TVPEILVHNIVIYMRTSVKISYIG — higher, 3.23
- TVPEILVHNIVIHMRTSVKISYIG — lower, 2.11
- TVPEILVHNIVISMRTSVKISYIG — higher, 2.83
- TVPEILVHNIVINMRTSVKISYIG — higher, 3.17
- TVPEILVHNIVIPMRTSVKISYIG — higher, 3.22
- TVPEILVHNIVIGMRTSVKISYIG — higher, 3.8
- TVPEILVHNIVIVMRTSVKISYIG — higher, 3.33
- TVPEILVHNIVIKMRTSVKISYIG — higher, 3.49
- TVPEILVHNIVIMMRTSVKISYIG — lower, 2.42
- TVPEILVHNIVIQMRTSVKISYIG — higher, 2.96
- TEPEILVHNIVIFMRTSVKISYIG — lower, 2.47
- TDPEILVHNIVIFMRTSVKISYIG — lower, 2.5
- TSPEILVHNIVIFMRTSVKISYIG — lower, 2.63
- THPEILVHNIVIFMRTSVKISYIG — higher, 2.77
- TIPEILVHNIVIFMRTSVKISYIG — lower, 2.67
- TFPEILVHNIVIFMRTSVKISYIG — higher, 2.95
- TKPEILVHNIVIFMRTSVKISYIG — higher, 2.81
- TNPEILVHNIVIFMRTSVKISYIG — lower, 2.01
- TLPEILVHNIVIFMRTSVKISYIG — higher, 3.28
- TVPEILVHNIVIFMRTSVKISYID — lower, 2.27
- TVPEILVHNIVIFMRTSVKISYIS — higher, 3.61
- TVPEILVHNIVIFMRTSVKISYIL — higher, 2.82
- TVPEILVHNIVIFMRTSVKISYIA — lower, 2.22
- TVPEILVHNIVIFMRTSVKISYIC — higher, 2.8
- TVPEILVHNIVIFMRTSVKISYIK — higher, 2.98
- TVPEILVHNIVIFMRQSVKISYIG — lower, 2.46
- TVPEILVHNIVIFMRISVKISYIG — lower, 1.93
- TVPEILVHNIVIFMRDSVKISYIG — higher, 2.97
- TVPEILVHNIVIFMRFSVKISYIG — higher, 3.06
- MVPEILVHNIVIFMRTSVKISYIG — higher, 3.02
- TVHEILVHNIVIFMRTSVKISYIG — lower, 2.52
- TVGEILVHNIVIFMRTSVKISYIG — higher, 3.81
- TVNEILVHNIVIFMRTSVKISYIG — lower, 1.33
- TVPEILVHNIVIFMRTSVKQSYIG — higher, 4.14
- TVPEILVHNIVIFMRTSVKASYIG — lower, 2.52
- TVPEILVHNIVIFMRTSVKKSYIG — higher, 3.3
- TVPEILVHNIVIFMRTSVKLSYIG — higher, 3.56
- TVPEILVHNIVIFMRTSVKNSYIG — lower, 1
- TVPEILVHNIVIFMRTSVKESYIG — higher, 3.72
- TVPEILVHNIVIFMRTSVKPSYIG — higher, 3.39
- TVPEILVHNIVIFMRTSVKSSYIG — higher, 3.33
- TVPEILVHNIVIFMRTSVKGSYIG — higher, 3.25
- TVPEILVHNIVIFMRTSVKTSYIG — higher, 3.24
- TVPEILVHNIVIFMRTSVKIGYIG — lower, 1.99
- TVPEILVHNIVIFMRTSVKITYIG — higher, 3.42
- TVPEILVHNIVIFMRTSVKIKYIG — lower, 2.53
- TVPEILVHNIVIFMRTSVKIWYIG — lower, 1.95
- TVPEILVHNIVIFMRTSVKIIYIG — higher, 3.51
- TVPEILVHNIVIFMRTSVKIDYIG — lower, 2.53
- TVPEILVHNIVIFMRTSVKIMYIG — higher, 3.51
- TVPEILVHNIVIFMRTSVKILYIG — higher, 3.4
- TVPEILVHNIVIFMRTSVKIFYIG — higher, 3.13
- TVPEILVHNIVIFMRTSVKIQYIG — lower, 2.04
- TVPEILVHNIVIFMRTSVKICYIG — higher, 2.77
- TVPEILVHNIVIFMRTSVKISYHG — lower, 1.77
- TVPEILVHNIVIFMRTSVKISYKG — higher, 4.25
- TVPEILVHNIVIFMRTSVKISYQG — higher, 4.15
- TVPEILVHNIVIFMRTSVKISYDG — higher, 3.85
- TVPEILVHNIVIFMRTSVKISYVG — lower, 2.4
- TVPEILVHNIVIFMRTSVKISYMG — higher, 3.06
- TVPEILVHNIVIFMRTSVKISYGG — higher, 2.88
- TVPEILVHNIVDFMRTSVKISYIG — higher, 3.93
- TVPEILVHNIVHFMRTSVKISYIG — higher, 3.33
- TVPEILVHNIVGFMRTSVKISYIG — higher, 3.97
- TVPEILVHNIVCFMRTSVKISYIG — higher, 2.8
- TVPEILVHNIVLFMRTSVKISYIG — higher, 3.84
- TVPEILVHNIVTFMRTSVKISYIG — lower, 2.07
- TVPEILVHNIVQFMRTSVKISYIG — lower, 2.11
- TVPEILVHNIVPFMRTSVKISYIG — lower, 2.19
- TVPEILVHNIVNFMRTSVKISYIG — higher, 3.08
- TVPEILVHNIVYFMRTSVKISYIG — higher, 3.05
- TVPEILVGNIVIFMRTSVKISYIG — lower, 2.27
- TVPEILVVNIVIFMRTSVKISYIG — higher, 2.81
- TVPEILVKNIVIFMRTSVKISYIG — higher, 3.34
- TVPEILVLNIVIFMRTSVKISYIG — higher, 3.28
- TVPEILVPNIVIFMRTSVKISYIG — higher, 3.19
- TVPEILVINIVIFMRTSVKISYIG — lower, 2.58
- TVPEILVHNILIFMRTSVKISYIG — lower, 1.78
- TVPEILVHNIMIFMRTSVKISYIG — higher, 2.77
- TVPEILVHNIEIFMRTSVKISYIG — higher, 3.64
- TVPEILVHNIQIFMRTSVKISYIG — lower, 1.83
- TVPEILVHNIAIFMRTSVKISYIG — higher, 4.26
- TVPEILVHNISIFMRTSVKISYIG — higher, 3.97
- TVPEILVHNICIFMRTSVKISYIG — higher, 3.91
- TVPEILVHNIWIFMRTSVKISYIG — higher, 2.85
- TVPEILVHNINIFMRTSVKISYIG — higher, 2.86
- TVPEILVHNIVIFMQTSVKISYIG — lower, 2.73
- TVPEILVHNIVIFMSTSVKISYIG — higher, 3.18
- TVPEILVHNIVIFMTTSVKISYIG — lower, 2.69
- TVPEILVHNIVIFMETSVKISYIG — lower, 1.63
- TVPEILVHNIVIFMITSVKISYIG — higher, 4.22
- TVPEILVHNIVIFKRTSVKISYIG — higher, 3.19
- TVPEILVHNIVIFFRTSVKISYIG — higher, 2.97
- TVPEILVHNIVIFPRTSVKISYIG — higher, 3.45
- TVPEILVHNIVIFRRTSVKISYIG — lower, 2.21
- TVPEILVHNIVIFLRTSVKISYIG — higher, 3.05
- TVPEILVHNIVIFVRTSVKISYIG — lower, 2.68
- TVPEILVHNIVIFARTSVKISYIG — higher, 3.73
- TVPEILVHNIVIFIRTSVKISYIG — higher, 2.85
- TVPEILVHNIVIFWRTSVKISYIG — higher, 2.87
- TVPEILVHNIVIFGRTSVKISYIG — higher, 3.13
- TVPEIEVHNIVIFMRTSVKISYIG — lower, 2.11
- TVPEICVHNIVIFMRTSVKISYIG — higher, 4.05
- TVPEIRVHNIVIFMRTSVKISYIG — higher, 4.09
- TVPEIFVHNIVIFMRTSVKISYIG — lower, 2.25
- TVPEIGVHNIVIFMRTSVKISYIG — higher, 3.13
- TVPEIAVHNIVIFMRTSVKISYIG — higher, 3.67
- TVPEIIVHNIVIFMRTSVKISYIG — lower, 2.59
- TVPEIVVHNIVIFMRTSVKISYIG — higher, 4.06
- TVPEIPVHNIVIFMRTSVKISYIG — lower, 2.63
- TVPEITVHNIVIFMRTSVKISYIG — higher, 2.83
- TVPEIHVHNIVIFMRTSVKISYIG — higher, 3.88
- TVPFILVHNIVIFMRTSVKISYIG — lower, 2.67
- TVPEILVHNAVIFMRTSVKISYIG — higher, 3.07
- TVPEILVHNNVIFMRTSVKISYIG — lower, 2.65
- TVPEILVHNMVIFMRTSVKISYIG — higher, 3.31
- TVPEILVHNYVIFMRTSVKISYIG — lower, 2.71
- TVPEILVHNWVIFMRTSVKISYIG — higher, 3.61
- TVPEILVHNFVIFMRTSVKISYIG — higher, 3.5
- TVPEILVHNDVIFMRTSVKISYIG — lower, 2.47
- TVPEILVHNGVIFMRTSVKISYIG — higher, 4.19
- TVPEILVHNEVIFMRTSVKISYIG — higher, 3.64
- TVPEILVHNQVIFMRTSVKISYIG — higher, 2.94
- TVPEILVHNIVIFMRTSMKISYIG — higher, 3.05
- TVPEILVHNIVIFMRTSSKISYIG — higher, 3.02
- TVPEILVHNIVIFMRTSHKISYIG — lower, 2.13
- TVPEILVHNIVIFMRTSDKISYIG — lower, 2.15
- TVPEILVHNIVIFMRTSLKISYIG — higher, 4.24
- TVPEILVHNIVIFMRTSYKISYIG — higher, 4.01
- TVPEILVHNIVIFMRTSPKISYIG — higher, 2.92
- TVPEILVHNIVIFMRTSEKISYIG — higher, 2.77
- TVPEILVHNIVIFMRTSKKISYIG — higher, 2.77
- TVPEILVHNIVIFMRTSTKISYIG — higher, 3.66
- TVPEILVHNIVIFMRTSFKISYIG — lower, 2.33
- TVPEQLVHNIVIFMRTSVKISYIG — higher, 3.61
- TVPEPLVHNIVIFMRTSVKISYIG — higher, 3.34
- TVPEWLVHNIVIFMRTSVKISYIG — lower, 2.49
- TVPELLVHNIVIFMRTSVKISYIG — higher, 2.94
- TVPEILVHYIVIFMRTSVKISYIG — lower, 2.44
- TVPEILVHPIVIFMRTSVKISYIG — higher, 3.7
- TVPEILVHDIVIFMRTSVKISYIG — higher, 3.55
- TVPEILVHVIVIFMRTSVKISYIG — lower, 2.49
- TVPEILVHKIVIFMRTSVKISYIG — lower, 2.02
- TVPEILVHQIVIFMRTSVKISYIG — higher, 2.95
- TVPEILVHCIVIFMRTSVKISYIG — higher, 2.85
- TVPEILVHSIVIFMRTSVKISYIG — lower, 2.31
- TVPEILVHEIVIFMRTSVKISYIG — higher, 2.96
- TVPEILVHLIVIFMRTSVKISYIG — higher, 3.14
- TVPEILVHNIVIFMRTSVNISYIG — higher, 3.38
- TVPEILVHNIVIFMRTSVEISYIG — higher, 4.38
- TVPEILVHNIVIFMRTSVIISYIG — higher, 3.18
- TVPEILVHNIVIFMRTSVCISYIG — higher, 4.43
- TVPEILVHNIVIFMRTSVHISYIG — lower, 2.62
- TVPEILVHNIVIFMRTSVMISYIG — lower, 1.77
- TVPEILVHNIVIFMRTSVYISYIG — higher, 3.12
- TVPEILVHNIVIFMRTSVLISYIG — higher, 3.2
- TVPEILVHNIVIFMRTSVQISYIG — higher, 3.02
- TVPEILVHNIVIFMRTSVPISYIG — higher, 2.88
- TVPEILVHNIVIFMRTSVAISYIG — higher, 3.17
- TVPEILVHNIVIFMRTSVKISAIG — higher, 3.58
- TVPEILVHNIVIFMRTSVKISWIG — lower, 2.65
- TVPEILVHNIVIFMRTSVKISIIG — higher, 4.35
- TVPEILVHNIVIFMRTSVKISGIG — lower, 2.47
- TVPEILVHNIVIFMRTSVKISPIG — higher, 3
- TVPEILVHNIVIFMRTSVKISHIG — lower, 2.67
- TVPEILVHNIVIFMRTSVKISTIG — higher, 2.84
- TVPEILVHNIVIFMRTSVKISKIG — higher, 2.86
- TVPEILVHNIVIFMRTSVKISCIG — lower, 2.5
- TVPEILLHNIVIFMRTSVKISYIG — lower, 2.24
- TVPEILMHNIVIFMRTSVKISYIG — lower, 2.05
- TVPEILFHNIVIFMRTSVKISYIG — lower, 2.51
- TVPEILSHNIVIFMRTSVKISYIG — lower, 2.37
- TVPEILIHNIVIFMRTSVKISYIG — higher, 4.62
- TVPEILEHNIVIFMRTSVKISYIG — higher, 4.49
- TVPEILHHNIVIFMRTSVKISYIG — higher, 3.09
- TVPEILVHNIVIFMRTCVKISYIG — higher, 3.88
- TVPEILVHNIVIFMRTDVKISYIG — lower, 2.48
- TVPEILVHNIVIFMRTGVKISYIG — lower, 2.1
- TVPEILVHNIVIFMRTWVKISYIG — higher, 3.7
- TVPEILVHNIVIFMRTTVKISYIG — higher, 3.17
- TVPEILVHNIVIFMRTQVKISYIG — higher, 3.81
- TVPEILVHNIVIFMRTMVKISYIG — lower, 2.69
- TVPEILVHNIVIFMRTFVKISYIG — higher, 4.33
- TVPEILVHNIVIFMRTIVKISYIG — lower, 2.2
- TVPEILVHNIVIFMRTEVKISYIG — higher, 3.3
